Laboratory results reported in EP2272524A2.

Assays:
[1] = molecular target: human Y4 receptor (human) (UniProt P50391); experiment: competition binding, displacement of 125I-PP, COS-7 cells with human Y4
[2] = molecular target: human Y5 receptor (human) (UniProt Q15761); experiment: competition binding, displacement of 125I-NPY, COS-7 cells with human Y5
[3] = molecular target: human Y4 receptor (human) (UniProt P50391); experiment: cell-based or functional assay
[4] = molecular target: human Y1 receptor (human) (UniProt P25929); experiment: cell-based or functional assay
UniProt P25929, sequence (P25929 whole entry): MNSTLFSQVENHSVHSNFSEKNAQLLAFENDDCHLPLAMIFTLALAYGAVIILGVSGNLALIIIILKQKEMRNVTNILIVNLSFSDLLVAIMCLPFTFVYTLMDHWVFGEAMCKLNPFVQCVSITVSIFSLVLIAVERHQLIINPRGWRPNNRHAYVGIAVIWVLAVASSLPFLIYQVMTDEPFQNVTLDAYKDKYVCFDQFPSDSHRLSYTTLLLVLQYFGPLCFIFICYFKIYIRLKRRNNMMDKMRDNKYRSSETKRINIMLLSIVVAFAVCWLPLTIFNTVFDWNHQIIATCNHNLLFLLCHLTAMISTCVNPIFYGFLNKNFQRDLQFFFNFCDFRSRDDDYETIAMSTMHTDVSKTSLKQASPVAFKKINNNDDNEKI

[5] = molecular target: human Y2 receptor (human) (UniProt P49146); experiment: cell-based or functional assay
UniProt P49146, sequence (P49146 whole entry): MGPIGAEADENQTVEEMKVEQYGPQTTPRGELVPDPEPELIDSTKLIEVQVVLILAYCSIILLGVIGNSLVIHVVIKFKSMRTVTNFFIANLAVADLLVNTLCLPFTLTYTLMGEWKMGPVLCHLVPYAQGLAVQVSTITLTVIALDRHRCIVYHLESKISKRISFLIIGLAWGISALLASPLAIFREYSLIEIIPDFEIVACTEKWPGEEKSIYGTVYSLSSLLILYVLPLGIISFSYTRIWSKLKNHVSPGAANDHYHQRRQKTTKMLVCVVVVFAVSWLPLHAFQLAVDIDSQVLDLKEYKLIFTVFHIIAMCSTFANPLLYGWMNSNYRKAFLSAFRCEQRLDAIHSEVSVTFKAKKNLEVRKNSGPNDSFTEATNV

[6] = molecular target: human Y2 receptor (human) (UniProt P49146); experiment: competition binding, displacement of 125I-PYY, COS-7 cells with human Y2
[7] = molecular target: human Y5 receptor (human) (UniProt Q15761); experiment: cell-based or functional assay

UniProt P50391, sequence (P50391 whole entry): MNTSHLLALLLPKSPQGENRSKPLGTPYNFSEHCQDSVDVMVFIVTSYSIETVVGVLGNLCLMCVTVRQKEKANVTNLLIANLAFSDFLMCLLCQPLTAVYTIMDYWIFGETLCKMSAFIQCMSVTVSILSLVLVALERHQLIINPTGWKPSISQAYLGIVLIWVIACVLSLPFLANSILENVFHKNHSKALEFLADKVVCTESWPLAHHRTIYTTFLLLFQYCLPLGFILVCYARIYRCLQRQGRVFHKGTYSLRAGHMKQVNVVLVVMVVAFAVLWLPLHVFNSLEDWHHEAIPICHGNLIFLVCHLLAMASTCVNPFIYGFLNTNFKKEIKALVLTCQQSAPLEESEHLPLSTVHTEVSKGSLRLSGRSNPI
UniProt Q15761, sequence (Q15761 whole entry): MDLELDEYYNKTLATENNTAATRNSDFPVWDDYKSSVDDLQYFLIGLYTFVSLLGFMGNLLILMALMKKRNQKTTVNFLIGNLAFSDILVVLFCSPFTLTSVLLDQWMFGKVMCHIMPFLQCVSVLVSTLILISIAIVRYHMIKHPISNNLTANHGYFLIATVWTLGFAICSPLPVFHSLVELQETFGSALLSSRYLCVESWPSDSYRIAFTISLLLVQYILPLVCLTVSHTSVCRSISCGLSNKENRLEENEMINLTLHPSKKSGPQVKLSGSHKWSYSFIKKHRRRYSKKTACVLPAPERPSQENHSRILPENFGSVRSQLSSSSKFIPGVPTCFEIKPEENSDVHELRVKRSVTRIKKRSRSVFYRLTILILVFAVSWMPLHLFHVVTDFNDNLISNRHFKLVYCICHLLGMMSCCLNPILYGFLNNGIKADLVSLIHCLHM

IC50 [1] | IC50 [2] | EC50, inositol phosphate turnover (potency assay) [3] | EC50, inositol phosphate turnover (potency assay) [4] | EC50, inositol phosphate turnover (potency assay) [5] | IC50 [6] | EC50, inositol phosphate turnover (potency assay) [7] | Substance
300 nM | 36 nM | > 1000 nM | > 1000 nM | 1.9 nM | 0.6 nM |  | [Cys2,D-Cys27]PYY2-36 (peptide)
 |  | > 1000 nM | > 1000 nM |  |  |  | [Cys2,D-Cys27]PYY (peptide)
6 nM | 0.87 nM | 64 nM | 38 nM | 0.17 nM | 0.21 nM | 3.8 nM | [Lys4,Gln34]PP (peptide)
